In assay [1] the target is T1, HER2 (ErbB2) (human, UniProt P04626 23-1255).
T1 construct: whole, on cells; also called NIH/3T3-HER2 cells; NIH/3T3-R2
Description: flow cytometry on NIH/3T3 cells presenting HER2 alone. On the procedure: (§1) FIGS. 4A-B show specificity of monoclonal antibodies directed to HER3. (FIG. 4A) NIH/3T3-EGFR, -HER2, -HER3 or -EGFR/HER4 cells were incubated with 25 μg/ml of each mAb for 1.5 h at 4° C. After 2 washes, the cells were incubated for 1 h at 4° C. (in the dark) with a secondary anti-mouse IgG Ab coupled to AlexaFluor 488. The fluorescence intensity (F.I.) was measured on the LSRII flow cytometer. The negative control is made using an irrelevant mouse IgG as primary Ab. The positive control are the following mAb 565 (anti-EGFR), mAb L26 (anti-HER2), mAb 9F7 (anti-HER3), mAb 77 (anti-HER4). (FIG. 4B) The panel presents the geometric mean and the CV of the fluorescence intensity.

Assay [2] deals with T2, HER4 (ErbB4) (human, UniProt Q15303 26-1308).
T2 construct: whole, on cells; also called NIH/3T3-EGFR/HER4 cells; NIH/3T3-R1R4
Description: flow cytometry on NIH/3T3 cells presenting EGFR and HER4. Here is the method: as §1

Assay [3] has as its target T3, EGFR (ErbB1/HER1) (human, UniProt P00533 25-1210).
T3 construct: whole, on cells; also called NIH/3T3-EGFR cells; NIH/3T3-R1
Description: flow cytometry on NIH/3T3 cells presenting EGFR alone. Here is the method:
as §1

Assay [4] deals with T4, HER3 fused with SNAP-Tag, expressed on HEK 293 cells and labelled with Lumi4-Tb (human, UniProt P21860 20-1342, SNAP-tag labelled with BG-Lumi4(Tb)).
T4 construct: whole, on cells; the parts follow the printed name HER3-SNAP-Tag; also called HER3-SNAP-Tag; HEK293-HER3-SNAP-Lumi4-Tb cells; not shown: SNAP-Tag (CISbio Tag-lite plasmid)
Description: Tag-lite FRET, d2-labelled mAb on HEK293 cells with Lumi4(Tb)-labelled HER3-SNAP-Tag. Here is the method: FIGS. 3A-E show Kd determination of mAb to HER3 using the Tag-Lite technology. Cells are transfected with HER3-SNAP-Tag and labeled with BG-Lumi4(Tb), a SNAP-tag subtract. Following incubation with increasing concentrations of indicated d2 labeled mAb directed to HER3, the Kd was determined from the binding curve fitting. The binding curve was obtained by measuring the FRET between the donor Lumi4(Tb) and the acceptor d2-dye. The unspecific binding was evaluated by adding an excess of unlabelled Ab.
TABLE 2 Kd determination of indicated mAb to HER3 using the Tag- Lite technology. Cells were transfected with HER3-SNAP- Tag and labeled withBG-Lumi4(Tb), a SNAP-tag subtract. Following incubation with increasing concentrations of indicated d2 labeled mAb directed to HER3, the Kd was determined from the binding curve fitting. The binding curve was obtained by measuring the FRET between the donor Lumi4(Tb) and the acceptor d2-dye.

The target in assay [5] is T5, IgB3 (recombinant HER3 extracellular domain fused to a human IgG Fc domain) (human, UniProt P21860 20-643).
T5 construct: extracellular domain; Secreted from HEK-293 cells, purified on protein G / protein A; not shown: Fc domain of a human IgG1
Description: ELISA, IgB3-coated microplate, purified mAb, HRP anti-mouse IgG. Here is the method:
FIGS. 2A-D show monoclonal antibody targeting HER3 extracellular domain. (FIG. 2A) 96 well-plates were coated with 1.5 μg/ml of IgB3, blocked with PBS-BSA (1% weight/vol) and incubated for 1 h with various concentrations of purified mAbs under gentle shaking at RT. After washing, a second 1 h-incubation with HRP-labelled anti-mouse IgG was performed and followed by incubation with 2,2′-azino-bis (3-ethylbenzothiazoline-6-sulfonic acid) for 10 min. The OD at 415 nm was measured using by an ELISA microplate reader. […] After 2 washes, the cells were incubated for 1 h at 4° C. (in the dark) with a secondary anti-mouse IgG Ab coupled to AlexaFluor 488. The fluorescence intensity (F.I.) was measured on the LSRII flow cytometer. […] After 4 washes, the content bound to the beads was eluted and analyzed by immunoblotting (IB) with an antibody to HER3/ErbB-3.
The comparison of the capacity of purified mAbs to bind with IgB3 was evaluated using ELISA (FIG. 2A). […] Each antibody was labeled with the d2-dye, and by measuring the binding of the labeled-mAb to cells presenting Lumi4(Tb)-labeled HER3 using FRET, the KD was determined and reported in Table 2, below. The values obtained correlate with the different patterns of HER3 binding determined by FACS (FIGS. 2B and 2C), although they are distinct from the patterns of IgB3 binding determined using ELISA (FIG. 2A).

Assay [6] has as its target T4, HER3 fused with SNAP-Tag, expressed on …. Description: Tag-lite FRET KD of Table 2, compared with the other mAbs.

T4 sequence (P21860 20-1342): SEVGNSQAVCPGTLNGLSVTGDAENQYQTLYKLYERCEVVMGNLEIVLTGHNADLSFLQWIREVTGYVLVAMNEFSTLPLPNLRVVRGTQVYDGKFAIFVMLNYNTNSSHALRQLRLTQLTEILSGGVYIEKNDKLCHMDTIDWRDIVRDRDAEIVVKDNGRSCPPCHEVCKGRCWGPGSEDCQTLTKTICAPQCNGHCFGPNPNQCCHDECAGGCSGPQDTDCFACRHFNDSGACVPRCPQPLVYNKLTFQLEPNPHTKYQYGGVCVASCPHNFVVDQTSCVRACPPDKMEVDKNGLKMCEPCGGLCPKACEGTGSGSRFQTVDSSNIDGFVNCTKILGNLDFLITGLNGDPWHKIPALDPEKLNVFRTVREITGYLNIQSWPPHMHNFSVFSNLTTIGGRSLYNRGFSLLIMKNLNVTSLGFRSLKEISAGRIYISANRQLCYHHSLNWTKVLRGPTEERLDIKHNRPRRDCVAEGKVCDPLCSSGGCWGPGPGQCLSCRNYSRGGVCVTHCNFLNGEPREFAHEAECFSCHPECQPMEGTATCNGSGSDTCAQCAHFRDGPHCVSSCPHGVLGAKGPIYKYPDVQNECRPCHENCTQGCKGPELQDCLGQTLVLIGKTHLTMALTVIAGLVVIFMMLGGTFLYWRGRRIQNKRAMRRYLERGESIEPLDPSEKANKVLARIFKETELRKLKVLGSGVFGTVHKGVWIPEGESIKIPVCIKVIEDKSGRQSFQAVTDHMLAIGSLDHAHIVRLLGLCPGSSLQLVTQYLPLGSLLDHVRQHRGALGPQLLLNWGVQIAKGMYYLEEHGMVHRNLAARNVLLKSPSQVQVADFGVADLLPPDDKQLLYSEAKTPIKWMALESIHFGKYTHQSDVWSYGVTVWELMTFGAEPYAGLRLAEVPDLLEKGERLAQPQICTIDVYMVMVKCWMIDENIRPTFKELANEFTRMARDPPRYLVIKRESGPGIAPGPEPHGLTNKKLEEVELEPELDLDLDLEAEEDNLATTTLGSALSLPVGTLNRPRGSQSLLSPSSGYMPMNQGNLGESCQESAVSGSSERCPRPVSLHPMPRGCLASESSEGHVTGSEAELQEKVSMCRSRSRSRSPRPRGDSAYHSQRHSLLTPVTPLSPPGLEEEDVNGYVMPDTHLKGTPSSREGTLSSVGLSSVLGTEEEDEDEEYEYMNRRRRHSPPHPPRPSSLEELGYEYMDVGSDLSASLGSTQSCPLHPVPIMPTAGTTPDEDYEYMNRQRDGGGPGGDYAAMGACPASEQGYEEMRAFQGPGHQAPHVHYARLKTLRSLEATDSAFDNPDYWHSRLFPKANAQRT
T5 sequence (P21860 20-643): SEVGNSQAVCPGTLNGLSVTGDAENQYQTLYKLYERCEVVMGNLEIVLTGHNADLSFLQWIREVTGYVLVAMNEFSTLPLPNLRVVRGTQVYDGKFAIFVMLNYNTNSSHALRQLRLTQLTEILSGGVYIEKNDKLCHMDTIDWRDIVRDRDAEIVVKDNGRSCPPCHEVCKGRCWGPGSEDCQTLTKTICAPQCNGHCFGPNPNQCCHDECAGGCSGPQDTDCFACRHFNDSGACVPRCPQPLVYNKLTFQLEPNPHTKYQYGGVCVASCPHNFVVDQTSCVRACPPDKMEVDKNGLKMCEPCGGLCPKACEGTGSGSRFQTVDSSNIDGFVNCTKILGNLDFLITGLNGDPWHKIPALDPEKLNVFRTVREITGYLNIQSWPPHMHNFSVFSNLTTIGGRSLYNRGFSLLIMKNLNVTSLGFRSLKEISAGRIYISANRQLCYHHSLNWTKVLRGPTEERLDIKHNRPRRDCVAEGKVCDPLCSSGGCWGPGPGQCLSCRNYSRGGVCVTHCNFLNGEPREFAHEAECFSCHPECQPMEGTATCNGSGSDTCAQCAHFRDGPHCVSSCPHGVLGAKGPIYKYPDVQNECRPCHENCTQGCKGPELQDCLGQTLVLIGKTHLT
T2 sequence (Q15303 26-1308): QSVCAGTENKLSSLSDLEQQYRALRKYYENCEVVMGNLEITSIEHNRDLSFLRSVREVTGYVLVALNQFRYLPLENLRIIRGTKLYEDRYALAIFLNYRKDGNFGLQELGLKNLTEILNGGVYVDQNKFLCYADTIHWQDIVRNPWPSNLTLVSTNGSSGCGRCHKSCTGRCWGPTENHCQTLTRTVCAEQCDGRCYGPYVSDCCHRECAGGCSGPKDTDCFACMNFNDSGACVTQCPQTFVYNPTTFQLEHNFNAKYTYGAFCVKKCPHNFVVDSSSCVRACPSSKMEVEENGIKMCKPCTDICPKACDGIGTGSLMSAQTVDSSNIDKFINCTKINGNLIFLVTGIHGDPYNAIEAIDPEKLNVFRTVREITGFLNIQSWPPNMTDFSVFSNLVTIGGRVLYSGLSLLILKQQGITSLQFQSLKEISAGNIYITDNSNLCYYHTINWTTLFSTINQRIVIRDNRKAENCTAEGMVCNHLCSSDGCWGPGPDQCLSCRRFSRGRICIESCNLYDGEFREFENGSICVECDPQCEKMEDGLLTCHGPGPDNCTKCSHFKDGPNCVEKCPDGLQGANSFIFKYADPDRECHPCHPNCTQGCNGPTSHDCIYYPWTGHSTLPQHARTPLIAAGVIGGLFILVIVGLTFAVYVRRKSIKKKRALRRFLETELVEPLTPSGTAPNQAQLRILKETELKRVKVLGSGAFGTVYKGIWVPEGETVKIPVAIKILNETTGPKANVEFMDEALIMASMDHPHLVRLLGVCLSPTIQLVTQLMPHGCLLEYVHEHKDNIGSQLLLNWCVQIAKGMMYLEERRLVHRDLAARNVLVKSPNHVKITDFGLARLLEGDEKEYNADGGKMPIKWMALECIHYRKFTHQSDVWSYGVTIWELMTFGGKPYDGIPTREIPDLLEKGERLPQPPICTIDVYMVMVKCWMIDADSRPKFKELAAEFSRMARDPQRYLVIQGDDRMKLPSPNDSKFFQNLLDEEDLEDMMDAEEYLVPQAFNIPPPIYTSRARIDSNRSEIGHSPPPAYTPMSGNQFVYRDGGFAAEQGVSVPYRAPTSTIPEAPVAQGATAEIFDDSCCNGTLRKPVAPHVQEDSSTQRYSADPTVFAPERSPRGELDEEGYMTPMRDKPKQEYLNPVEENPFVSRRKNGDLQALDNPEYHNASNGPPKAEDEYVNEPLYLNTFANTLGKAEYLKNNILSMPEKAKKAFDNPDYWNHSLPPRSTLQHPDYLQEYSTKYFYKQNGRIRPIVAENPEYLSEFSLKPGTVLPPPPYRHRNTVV

B1: mAb XC252 (antibody, V domains shown)
VH: EVQLQQSGAELVRPGVSVKISCKGSGYTFTDYAMHWVKQSHAKSLEWIGVISTYYGDPRDNQKFKGKATMTVDKSSSTAYMELARLTSEDSAIYYCARGDYDWYAIDYWGQGTSVTVSS
VL: DVVMTQTPLSLPVSLGDQASISCRSSQSIVHSDGNTYLEWYLQKPGQSPKLLIYKVSNRFSGVPDRFSGSGSGTDFTLKISRVEAEDLGVYYCFQGSHVPPTFGGGTKLEIK
notes: also called XC252-K2 (Lumi4 Tb cryptate labelled)
On to B1, for which the binding result in assay [1], in assay [2] and in assay [3] was “no binding (tested: 25 µg/ml)” throughout. Besides, in assay [4], the affinity, expressed as Kd, was 1.09 nM. The EC50 in assay [5] was found to be 0.21 nM.

B2: anti-HER3 mAb NG140 (antibody, V domains shown)
VH: QVQLKESGPGLVKPSQSLSLTCSVTGYSITSGYYWNWIRQFPGNKLEWMGSIYYDGSNNYNPSLKNRISVTRDTSKNQFFLKLNSVTTEDTATYYCARDYDVGYAMDYWGQGASVTVSS
VL: DIVLTQSSSYLSVSLGGRVTITCKASDHINNWLAWYQQKPGNAPRLLISGATSLETGVPSRFSGSGSGKDYTLSITSLQTEDVATYYCQQYWSIPWTFGGGTKLEIK
In assay [4], B2 gave a Kd of 6.12 nM. The EC50 in assay [5] came to 16.8 nM.

B3: anti-HER3 mAb NG33 (antibody, V domains shown)
VH: DVQLQESGPGLVKPSQSLSLTCSVTGYSITSGFYWSWIRQFPGNKLEWMGYIAYDGTSNYNPSLKNRISITRDTSKNQFFLKLKSVTNEDTPTYYCARGGGYYGQLLDYWGQGTSVTVSS
VL: DARMTQSPSSLSASLGDRVTISCRASQDISNYLNWYQQKPDGTVKVLIYNTAKLHSGVPSRFSGSGSGTDYSLTISNLEQEDFATYFCQQGKTLPWTFGGGTKLELK
Consider B3, for which the affinity in assay [4], expressed as Kd, was 2.96 nM.

B4: anti-HER3 mAb NG83 (antibody, V domains shown)
VH: QIQLVQSGPELKKRGETVKISCKASGYTFTNYGMNWVRQAPGKGLKCMGWINTYAGEPTYADDFKGRFAFSLDSSASTAYLQINNLKNEDMATYFCARGGITGAMDYWGQGTSVTVSS
VL: DVVMTQKTSSLSTSLGDRVTISCRASQDIRNYLNWYQQKPDGTVKLLIYYTSRLHSGVPSRFSGSGSGTDYSLTISDLEQEDIATYFCQQGNTLPWTFGGGTKLAIK
With B4, in assay [6], the “fold weaker affinity than the other mAbs” value came out at 10 fold. Further, the Kd in assay [4] is above 14 nM.

These data come from patent US20170306049A1 (YEDA RESEARCH AND DEVELOPMENT, published 2017).
